Biological target: Carbonic anhydrase 1 (CA1) (human, UniProt P00915 2-261)
Assay: G-FET

Carbonic anhydrase 1 (CA1), sequence (P00915 2-261): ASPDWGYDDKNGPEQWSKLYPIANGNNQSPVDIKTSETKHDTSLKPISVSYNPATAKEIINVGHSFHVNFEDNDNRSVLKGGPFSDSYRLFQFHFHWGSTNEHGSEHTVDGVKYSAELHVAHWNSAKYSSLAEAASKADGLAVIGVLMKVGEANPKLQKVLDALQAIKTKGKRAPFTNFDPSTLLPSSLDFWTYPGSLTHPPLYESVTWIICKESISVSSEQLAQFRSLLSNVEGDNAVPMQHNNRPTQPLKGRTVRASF

CAGGCGCAGUAUCACUUUGUGAUCAUUAGUGGGUUCCGUG (ssRNA, 5' amine, coupled to graphene via PBASE linker) [CA1 RNA aptamer] gave a Kd of 2.27 ng/mL.
